B1: SNAP-Fbs1 fusion protein (wild-type human Fbs1 sugar-binding domain, residues 92-296) [human] / fetuin [modified: sialylated complex N-linked glycans; sialylated complex N-linked glycans] [not stated] (parent)
chain 1: CQQEGLVPEGGVEEERDHWQQFYFLSKRRRNLLRNPCGEEDLEGWCDVEHGGDGWRVEELPGDSGVEFTHDESVKKYFASSFEWCRKAQVIDLQAEGYWEELLDTTQPAIVVKDWYSGRSDAGCLYELTVKLLSEHENVLAEFSSGQVAVPQDSDGGGWMEISHTFTDYGPGVRFVRFEHGGQDSVYWKGWFGARVTNSSVWVEP
chain 2: IPLDPVAGYKEPACDDPDTEQAALAAVDYINKHLPRGYKHTLNQIDSVKVWPRRPTGEVYDIEIDTLETTCHVLDPTPLANCSVRQQTQHAVEGDCDIHVLKQDGQFSVLFTKCDSSPDSAEDVRKLCPDCPLLAPLNDSRVVHAVEVALATFNAESNGSYLQLVEISRAQFVPLPVSVSVEFAVAATDCIAKEVVDPTKCNLLAEKQYGFCKGSVIQKALGGEDVRVTCTLFQTQPVIPQPQPDGAEAEAPSAVPDAAGPTPSAAGPPVASVVVGPSVVAVPLPLHRAHYDLRHTFSGVASVESSSGEAFHVGKTPIVGQPSIPGGPVRLCPGRIRYFKI

Variants of: B1
Test: fetuin bead pulldown, SDS-PAGE quantified by ImageJ
Conditions: with fetuin [modified: sialylated complex N-linked glycans, E. coli cell lysate containing the same amount of wt Fbs1 or variant Fbs1 fusion protein, parent: 1, read off a plot

Row | Variant | ratio to parent
1 | chain 1 CQQEGLVPEGGVEEERDHWQQFYFLSKRRRNLLRNPCGEEDLEGWCDVEHGGDGWRVEELPGPPGVEFTHDESVKKYFASSFEWCRKAQVIDLQAEGYWEELLDTTQPAIVVKDWYSGRSDAGCLYELTVKLLSEHENVLAEFSSGQVAVPQDSDGGGWMEISHTFTDYGPGVRFVRFEHGGQDSVYWKGWFGARVTNSSVWVEP [chain 1 D63P S64P] | 1.7 fold change
2 | chain 1 CQQEGLVPEGGVEEERDHWQQFYFLSKRRRNLLRNPCGEEDLEGWCDVEHGGDGWRVEELPGPPSVEFTHDESVKKYFASSFEWCRKAQVIDLQAEGYWEELLDTTQPAIVVKDWYSGRSDAGCLYELTVKLLSEHENVLAEFSSGQVAVPQDSDGGGWMEISHTFTDYGPGVRFVRFEHGGQDSVYWKGWFGARVTNSSVWVEP [chain 1 D63P S64P G65S] | 2.5 fold change

— article PMC5457524, “An engineered high affinity Fbs1 carbohydrate binding protein for selective capture of N-glycans and N-glycopeptides” (Nature Communications, 2017)
